Consider 2 substances from article PMC3852654.

For assay [1], the target named is Rap1a (resistance-associated protein 1a, immunity protein of Ssp1), without N-terminal periplasmic targeting sequence (Serratia marcescens). The assay is described as follows: crystal structure; Rap1a alone; reservoir 25% PEG 3350, 100 mM bis-tris pH 5.5; about 2.0 A; two molecules in the asymmetric unit.
The target is the same in assay [2]. Kind of assay: SEC; Rap1a alone in solution (Supplementary Fig. S1). (SEC sorts molecules by how far they enter the pores of the column.)
For assay [3], the target named is Rap2a (resistance-associated protein 2a, immunity protein of Ssp2), without N-terminal periplasmic targeting sequence (Serratia marcescens). The assay is described as follows: crystal structure; Rap2a alone, 13.5 mg/ml; reservoir 25% PEG 1000, 0.1 M MES pH 6.5; 1.9 A; four molecules in the asymmetric unit.

Usually stoichiometry N stands for the number of molecules, sites or subunits per partner or assembly. For the substance “Rap1a (resistance-associated protein 1a, immunity protein of Ssp1), without N-terminal periplasmic targeting sequence (natural protein)”, the stoichiometry N in assay [1] and in assay [2] was 2 throughout. “Rap2a (resistance-associated protein 2a, immunity protein of Ssp2), without N-terminal periplasmic targeting sequence (natural protein)” returned a stoichiometry N in assay [3] of 2.
